Changes are numbered by the printed parent chain. In names and notes the source's numbering stands. Several values for one entry are separate records, joined by “and”; a condition that tells them apart may be missing. Identical values can stand only once.

First the molecules themselves.
T1: CEACAM1 (Sino Biological) (human, UniProt P13688 35-428, limits assumed)
T1 construct: may be the same as CEACAM1-HIS; also called hCEACAM1; biotinylated soluble CEACAM1
T1 sequence: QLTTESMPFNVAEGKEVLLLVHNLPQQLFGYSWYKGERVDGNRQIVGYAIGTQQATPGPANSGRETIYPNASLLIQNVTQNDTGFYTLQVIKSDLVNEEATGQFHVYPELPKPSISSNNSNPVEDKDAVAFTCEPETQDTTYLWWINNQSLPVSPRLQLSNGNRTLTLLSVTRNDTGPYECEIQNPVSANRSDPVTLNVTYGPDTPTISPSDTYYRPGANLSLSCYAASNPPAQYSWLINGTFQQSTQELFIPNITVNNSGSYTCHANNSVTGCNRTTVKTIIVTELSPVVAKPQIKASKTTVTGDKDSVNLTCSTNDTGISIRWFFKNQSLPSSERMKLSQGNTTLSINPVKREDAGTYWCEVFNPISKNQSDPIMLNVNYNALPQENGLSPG

B1: He13/L3 (antibody, IgG4, V domains shown)
VH: EVQLLESGGGLVQPGGSLRLSCAASGFSFSDYYLYWVRQAPGKGLEWVATISVGGGQTSYADSVKGRFTISRDNSKNTLYLQMNSLRAEDTAMYYCTRGLYYGPSWLAYWGQGTLVTVSS
VL: DIVMTQSPDSLAVSLGERATINCKSSQSLLNSANQKNYLAWYQQKPGQPPKLLIYFASTRESGVPDRFSGSGSGTDFTLTISSLQAEDVAVYYCQSHFPFPFTFGGGTKVEIK
notes: IgG4 S241P, kappa
B2: He14/L6 (antibody, IgG4, V domains shown)
VH: B1 VH with L107V
VL: B1 VL with F98Y, P101S
notes: IgG4 S241P, kappa
B3: He13/L18 (antibody, IgG4, V domains shown)
VH: B1 VH
VL: B1 VL with F100Y
notes: IgG4 S241P, kappa
B4: He14/L4 #1 (antibody, IgG4, V domains shown)
VH: B1 VH with L107V
VL: B1 VL with F100Y, P101Y, F102Y
notes: IgG4 S241P, kappa
B5: He17/L18 (antibody, IgG4, V domains shown)
VH: B1 VH with G99A, L100R, Y101T, S105A, L107F
VL: B1 VL with F100Y
notes: IgG4 S241P, kappa
B6: He13/L19 (antibody, IgG4, V domains shown)
VH: B1 VH
VL: B1 VL with F98I, P99Y, F100P, P101N
notes: IgG4 S241P, kappa
B7: He17/L3 (antibody, IgG4, V domains shown)
VH: B1 VH with G99A, L100R, Y101T, S105A, L107F
VL: B1 VL
notes: IgG4 S241P, kappa
B8: He14/L4#2 (antibody, IgG4, V domains shown)
VH: B1 VH with L107V
VL: B1 VL with F98Y, F100Y, F102Y
notes: IgG4 S241P, kappa
B9: He14/L17 (antibody, IgG4, V domains shown)
VH: B1 VH with L107V
VL: B1 VL with F98Y, F100Y, F102Y
notes: IgG4 S241P, kappa
B10: He17/Parent VL (antibody, IgG4, V domains shown)
VH: B1 VH with G99A, L100R, Y101T, S105A, L107F
VL: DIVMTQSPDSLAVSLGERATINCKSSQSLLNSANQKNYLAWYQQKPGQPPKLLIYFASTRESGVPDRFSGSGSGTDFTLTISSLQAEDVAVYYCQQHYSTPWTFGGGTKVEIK
notes: IgG4 S241P, kappa
B11: He14/L16 (antibody, IgG4, V domains shown)
VH: B1 VH with L107V
VL: B1 VL with F98Y, F100Y
notes: IgG4 S241P, kappa
B12: He17/L4#2 (antibody, IgG4, V domains shown)
VH: B1 VH with G99A, L100R, Y101T, S105A, L107F
VL: B1 VL with F98Y, F100Y, F102Y
notes: IgG4 S241P, kappa
B13: He14/L3 (antibody, IgG4, V domains shown)
VH: B1 VH with L107V
VL: B1 VL
notes: IgG4 S241P, kappa
B14: He14/L2 (antibody, IgG4, V domains shown)
VH: B1 VH with L107V
VL: B1 VL with F98Y, F102Y
notes: IgG4 S241P, kappa
B15: He17/L4 #1 (antibody, IgG4, V domains shown)
VH: B1 VH with G99A, L100R, Y101T, S105A, L107F
VL: B1 VL with F100Y, P101Y, F102Y
notes: IgG4 S241P, kappa
B16: He14/Parent VL (antibody, IgG4, V domains shown)
VH: B1 VH with L107V
VL: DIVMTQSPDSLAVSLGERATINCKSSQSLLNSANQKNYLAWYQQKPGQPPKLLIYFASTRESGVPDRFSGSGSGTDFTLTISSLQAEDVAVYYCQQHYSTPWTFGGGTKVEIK
notes: IgG4 S241P, kappa
B17: He13/Parent VL (antibody, IgG4, V domains shown)
VH: B1 VH
VL: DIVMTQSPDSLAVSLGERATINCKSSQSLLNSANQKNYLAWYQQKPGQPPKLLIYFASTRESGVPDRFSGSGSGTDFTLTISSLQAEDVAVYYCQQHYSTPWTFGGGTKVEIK
notes: IgG4 S241P, kappa
B18: He13/L4#2 (antibody, IgG4, V domains shown)
VH: B1 VH
VL: B1 VL with F98Y, F100Y, F102Y
notes: IgG4 S241P, kappa
B19: He13/L6 (antibody, IgG4, V domains shown)
VH: B1 VH
VL: B1 VL with F98Y, P101S
notes: IgG4 S241P, kappa
B20: He14/L19 (antibody, IgG4, V domains shown)
VH: B1 VH with L107V
VL: B1 VL with F98I, P99Y, F100P, P101N
notes: IgG4 S241P, kappa
B21: He13/L20 (antibody, IgG4, V domains shown)
VH: B1 VH
VL: B1 VL with F100Y, F102L
notes: IgG4 S241P, kappa
B22: He17/L5 (antibody, IgG4, V domains shown)
VH: B1 VH with G99A, L100R, Y101T, S105A, L107F
VL: B1 VL with F98Y, P101A
notes: IgG4 S241P, kappa
B23: He17/L6 (antibody, IgG4, V domains shown)
VH: B1 VH with G99A, L100R, Y101T, S105A, L107F
VL: B1 VL with F98Y, P101S
notes: IgG4 S241P, kappa
B24: He14/L18 (antibody, IgG4, V domains shown)
VH: B1 VH with L107V
VL: B1 VL with F100Y
notes: IgG4 S241P, kappa
B25: He14/L20 (antibody, IgG4, V domains shown)
VH: B1 VH with L107V
VL: B1 VL with F100Y, F102L
notes: IgG4 S241P, kappa
B26: He17/L17 (antibody, IgG4, V domains shown)
VH: B1 VH with G99A, L100R, Y101T, S105A, L107F
VL: B1 VL with F98Y, F100Y, F102Y
notes: IgG4 S241P, kappa
B27: He13/L17 (antibody, IgG4, V domains shown)
VH: B1 VH
VL: B1 VL with F98Y, F100Y, F102Y
notes: IgG4 S241P, kappa
B28: He17/L19 (antibody, IgG4, V domains shown)
VH: B1 VH with G99A, L100R, Y101T, S105A, L107F
VL: B1 VL with F98I, P99Y, F100P, P101N
notes: IgG4 S241P, kappa
B29: He14/L5 (antibody, IgG4, V domains shown)
VH: B1 VH with L107V
VL: B1 VL with F98Y, P101A
notes: IgG4 S241P, kappa
B30: He13/L16 (antibody, IgG4, V domains shown)
VH: B1 VH
VL: B1 VL with F98Y, F100Y
notes: IgG4 S241P, kappa
B31: He13/L5 (antibody, IgG4, V domains shown)
VH: B1 VH
VL: B1 VL with F98Y, P101A
notes: IgG4 S241P, kappa
B32: He17/L2 (antibody, IgG4, V domains shown)
VH: B1 VH with G99A, L100R, Y101T, S105A, L107F
VL: B1 VL with F98Y, F102Y
notes: IgG4 S241P, kappa
B33: He13/L4 #1 (antibody, IgG4, V domains shown)
VH: B1 VH
VL: B1 VL with F100Y, P101Y, F102Y
notes: IgG4 S241P, kappa
B34: He17/L20 (antibody, IgG4, V domains shown)
VH: B1 VH with G99A, L100R, Y101T, S105A, L107F
VL: B1 VL with F100Y, F102L
notes: IgG4 S241P, kappa

For the test, the target named is T1, CEACAM1 (Sino Biological). In words: SPR single-cycle. The method, boiled down:
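Humanized affinity-matured IgGs from crude supernatants captured on Protein A to ~100 RU, with CEACAM1 analyte injected at 25–100 nM (three-point, two-fold) in HBS-P+ without regeneration. 200 s association per injection, 300 s single dissociation; reference-channel and blank subtracted.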
As a reminder, the Kd is the constant that tells how readily two partners part at equilibrium. On to B1, for which the Kd was found to be 108 nM and the “fold better than Parent (KD)” value is 1.47 fold.

B2: the affinity, expressed as Kd, was 111 nM and the “fold better than Parent (KD)” value was 1.43 fold.

For the molecule B3, the Kd was 103 nM and the “fold better than Parent (KD)” value is 1.54 fold.

Take B4: the Kd came out at 93 nM and the “fold better than Parent (KD)” value came out at 1.7 fold.

For the molecule B5, the affinity, expressed as Kd, was 98 nM and the “fold better than Parent (KD)” value was determined as 1.62 fold.

Turning to B6, the Kd is 129 nM and the “fold better than Parent (KD)” value came out at 1.23 fold.

As to B7, the Kd came out at 95 nM and the “fold better than Parent (KD)” value amounted to 1.68 fold.

As to B8, the Kd is 396 nM and the “fold better than Parent (KD)” value worked out at 1.39 fold.

Take B9: the Kd came out at 97 nM and the “fold better than Parent (KD)” value turned out to be 1.64 fold.

Take B10: the Kd stood at 128 nM and the “fold better than Parent (KD)” value stood at 1.24 fold.

Consider B11, for which the Kd stood at 93 nM and the “fold better than Parent (KD)” value was determined as 1.7 fold.

Turning to B12, binding was put at a Kd of 258 nM and the “fold better than Parent (KD)” value is 2.14 fold.

For the molecule B13, the affinity, expressed as Kd, was 107 nM and the “fold better than Parent (KD)” value turned out to be 1.49 fold.

As to B14, binding was characterised by a dissociation constant (Kd) of 102 nM and the “fold better than Parent (KD)” value was 1.56 fold.

Regarding B15, the Kd was found to be 165 nM and the “fold better than Parent (KD)” value amounted to 0.96 fold.

Turning to B16, binding was put at a Kd of 88 nM and the “fold better than Parent (KD)” value came to 1.8 fold.

For the molecule B17, binding was characterised by a dissociation constant (Kd) of 91 nM and the “fold better than Parent (KD)” value came to 1.74 fold.

Regarding B18, the Kd is 289 nM and the “fold better than Parent (KD)” value was found to be 1.91 fold.

For the molecule B19, binding was put at a Kd of 105 nM and the “fold better than Parent (KD)” value stood at 1.51 fold.

Regarding B20, the affinity, expressed as Kd, was 87 nM and the “fold better than Parent (KD)” value turned out to be 1.83 fold.

For B21, the Kd was 109 nM and the “fold better than Parent (KD)” value stood at 1.46 fold.

In the case of B22, the affinity, expressed as Kd, was 81 nM and the “fold better than Parent (KD)” value came out at 1.97 fold.

For B23, binding was put at a Kd of 79 nM and the “fold better than Parent (KD)” value turned out to be 2.01 fold.

As for B24, binding was put at a Kd of 91 nM and the “fold better than Parent (KD)” value is 1.75 fold.

For the molecule B25, the Kd came to 114 nM and the “fold better than Parent (KD)” value stood at 1.39 fold.

Turning to B26, binding was characterised by a dissociation constant (Kd) of 104 nM and the “fold better than Parent (KD)” value is 1.53 fold.

Take B27: the Kd was 372 nM and 159 nM.

B28: the affinity, expressed as Kd, was 135 nM and the “fold better than Parent (KD)” value was 1.18 fold.

As to B29, binding was characterised by a dissociation constant (Kd) of 102 nM and the “fold better than Parent (KD)” value worked out at 1.56 fold.

Regarding B30, the Kd was 105 nM and the “fold better than Parent (KD)” value was 1.51 fold.

For the molecule B31, binding was put at a Kd of 95 nM and the “fold better than Parent (KD)” value came out at 1.68 fold.

With B32, the affinity, expressed as Kd, was 82 nM and the “fold better than Parent (KD)” value worked out at 1.95 fold.

Turning to B33, the affinity, expressed as Kd, was 115 nM and the “fold better than Parent (KD)” value is 1.38 fold.

Regarding B34, binding was characterised by a dissociation constant (Kd) of 99 nM and the “fold better than Parent (KD)” value amounted to 1.61 fold.
